The text below walks through data of patent US20250043022A1 (JIANGSU HENGRUI PHARMACEUTICALS, published 2025).

For orientation: EC50 means the concentration that produces a half-maximal response.

The labels stand for the following.
B1: PL-12 (bispecific antibody)
chain 1: not shown
chain 2: DIVLTQSPASLAVSPGQRATITCRASESVSIHGTHLMHWYQQKPGQPPKLLIYAASKLESGVPARFSGSGSGTDFTLTINPVEAEDTANYYCQQSFEDPLTFGQGTKLEIKRTVASGIPPKIECLPIDISIDEGKCLTVASAFTGEPTPEVTWSTGGRKIHSQEQGRFHIENTDDSTTLTIKDVQKQDGGLYTLTLRNEFGSDSATVNIHIRSI
chain 3: not shown
chain 4: not shown
B2: PL-19 (bispecific antibody)
chain 1: not shown
chain 2: B1 chain 2 with C136V, A142C
chain 3: not shown
chain 4: not shown
B3: PL-14 (bispecific antibody)
chain 1: not shown
chain 2: B1 chain 2 with C136V
chain 3: not shown
chain 4: not shown
B4: PL-4 (bispecific antibody)
chain 1: not shown
chain 2: B1 chain 2 with R112G, T113G, V114G, A115G, C136V, A142C
chain 3: not shown
chain 4: not shown
B5: PL-6 (bispecific antibody)
chain 1: not shown
chain 2: B1 chain 2 with R112G, T113G, V114G, A115G
chain 3: not shown
chain 4: not shown
B6: PL-9 (bispecific antibody)
chain 1: not shown
chain 2: B1 chain 2 with R112G, T113G, V114G, A115G
chain 3: not shown
chain 4: not shown
B7: PL-10 (bispecific antibody)
chain 1: not shown
chain 2: B1 chain 2 with R112G, T113G, V114G, A115G, C136V, A142C
chain 3: not shown
chain 4: not shown
B8: PL-5 (bispecific antibody)
chain 1: not shown
chain 2: B1 chain 2 with R112G, T113G, V114G, A115G, C136V
chain 3: not shown
chain 4: not shown
B9: PL-3 (bispecific antibody)
chain 1: not shown
chain 2: B1 chain 2 with R112G, T113G, V114G, A115G
chain 3: not shown
chain 4: not shown
B10: PL-13 (bispecific antibody)
chain 1: not shown
chain 2: B1 chain 2 with C136V, A142C
chain 3: not shown
chain 4: not shown
B11: PL-8 (bispecific antibody)
chain 1: not shown
chain 2: B1 chain 2 with R112G, T113G, V114G, A115G, C136V
chain 3: not shown
chain 4: not shown
B12: PL-7 (bispecific antibody)
chain 1: not shown
chain 2: B1 chain 2 with R112G, T113G, V114G, A115G, C136V, A142C
chain 3: not shown
chain 4: not shown
B13: PL-18 (bispecific antibody)
chain 1: not shown
chain 2: B1 chain 2
chain 3: not shown
chain 4: not shown
B14: PL-2 (bispecific antibody)
chain 1: not shown
chain 2: B1 chain 2 with R112G, T113G, V114G, A115G, C136V
chain 3: not shown
chain 4: not shown
B15: PL-11 (bispecific antibody)
chain 1: not shown
chain 2: B1 chain 2 with C136V
chain 3: not shown
chain 4: not shown
B16: PL-17 (bispecific antibody)
chain 1: not shown
chain 2: B1 chain 2 with C136V
chain 3: not shown
chain 4: not shown
B17: PL-15 (bispecific antibody)
chain 1: not shown
chain 2: B1 chain 2
chain 3: not shown
chain 4: not shown
B18: PL-1 (bispecific antibody)
chain 1: not shown
chain 2: B1 chain 2 with R112G, T113G, V114G, A115G, C136V, S176L, T180I
chain 3: not shown
chain 4: not shown
B19: Chi13 (antibody, human IgG1, kappa, V domains shown)
VH: QVQLKESGPGLVAPSQSLSITCTVSGFSLTNYAISWVRQPPGKGLEWLGVIWTGGGTHYNSALKSRLSISKDNSKSQVFLKMNSLQTDDTARYYCARKGNYYGSSLYYYAMNYWGQGTSVTVSS
VL: DIQMTQTTSSLSASLGDRVTISCRASQDISNYLNWYQQKPDGTVKLLIYYTSRLQSGVPSRFSGSGSGTDYSLSISNLEQEDIATYFCQQGDTLPYTFGGGTKLEIRT
notes: chimeric antibody, hIgG1/kappa
B20: 2-F2 (bispecific antibody)
heavy 1: not shown
light 1: EIVLTQSPDFQSVTPKEKVTITCSASSSVSHMYWYQQKPDQSPKLLIYRTSNLASGVPSRFSGSGSGTDFTLTINSLEAEDAATYYCQQYHSYPLMFGQGTKLEIKRTVAAPSVFIFPPSDEQLKSGTASVVCLLNNFYPREAKVQWKVDNALQSGNSQESVTEQDSKDSTYSLSSTLTLSKADYEKHKVYACEVTHQGLSSPVTKSFNRGEC
heavy 2: not shown
light 2: not shown
B21: hu13H2L2 (antibody, human IgG1, kappa, V domains shown)
VH: EVTLKESGPVLVKPTETLTLTCTVSGFSLSNYAISWIRQPPGKALEWLGVIWTGGGTHYNSALKSRLTISKDTSKSQVVLTMTNMDPVDTARYYCARKGNYYGSSLYYYAMNYWGQGTTVTVSS
VL: DIQMTQSPSSLSASVGDRVTITCRASQDISNYLNWYQQKPDGAPKLLIYYTSRLQSGVPSRFSGSGSGTDYTLTISSLQPEDFATYYCQQGDTLPYTFGGGTKVEIKR
B22: hu13H2L3 (antibody, human IgG1, kappa, V domains shown)
VH: B21 VH
VL: B21 VL with A43T, P44V
B23: hu13H1L3 (antibody, human IgG1, kappa, V domains shown)
VH: B21 VH with G49A, R92T
VL: B21 VL with A43T, P44V
B24: hu13H1L2 (antibody, human IgG1, kappa, V domains shown)
VH: B21 VH with G49A, R92T
VL: B21 VL
B25: hu13H2L1 (antibody, human IgG1, kappa, V domains shown)
VH: B21 VH
VL: B21 VL with D41G, G42K, Y71F
B26: hu13H3L1 (antibody, human IgG1, kappa, V domains shown)
VH: B21 VH with S30T, A44G, T73N
VL: B21 VL with D41G, G42K, Y71F
B27: hu13H3L3 (antibody, human IgG1, kappa, V domains shown)
VH: B21 VH with S30T, A44G, T73N
VL: B21 VL with A43T, P44V
B28: hu13H1L1 (antibody, human IgG1, kappa, V domains shown)
VH: B21 VH with G49A, R92T
VL: B21 VL with D41G, G42K, Y71F
B29: hu13H3L2 (antibody, human IgG1, kappa, V domains shown)
VH: B21 VH with S30T, A44G, T73N
VL: B21 VL

Residue numbers refer to the chain shown, from its start.

hPDL1, sequence (Q9NZQ7 19-238 limits assumed): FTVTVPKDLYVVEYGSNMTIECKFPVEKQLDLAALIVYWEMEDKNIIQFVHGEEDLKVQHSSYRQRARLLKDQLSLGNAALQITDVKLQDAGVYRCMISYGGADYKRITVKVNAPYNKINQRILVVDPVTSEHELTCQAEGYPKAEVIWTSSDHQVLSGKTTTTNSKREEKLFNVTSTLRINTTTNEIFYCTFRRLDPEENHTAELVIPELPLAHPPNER

One experiment concerns the target hPDL1 (human, UniProt Q9NZQ7 19-238). The experiment is described as follows: ELISA.
Turning to B1, the EC50 amounted to 0.5 nM.

For B2, the EC50 amounted to 1.6 nM.

For B3, the EC50 came to 1.3 nM.

B4 registered a 50% effective concentration (EC50) of 0.7 nM.

The molecule B5 displayed a concentration for a half-maximal effect (EC50) of 0.8 nM.

For the molecule B6, the EC50 worked out at 0.6 nM.

For B7, the midpoint of the response, the EC50, lay at 0.6 nM.

For the molecule B8, the EC50 stood at 0.7 nM.

On to B9, for which the EC50 was 0.6 nM.

B10 registered an EC50 of 0.5 nM.

For B11, the EC50 was 1.4 nM.

Take B12: the EC50 came out at 0.5 nM.

In the case of B13, the EC50 stood at 1.6 nM.

B14 came in with an EC50 of 0.5 nM.

For B15, the EC50 came to 0.6 nM.

B16: a half-maximal response (EC50) required 1.4 nM.

As for B17, the EC50 was 1.4 nM.

Molecule B18 came in with an EC50 of 1.6 nM.

The next experiment deals with hCTLA4 (human, UniProt P16410 36-161). The experiment can be described thus: ELISA. On the technique in general: ELISA stands for enzyme-linked immunosorbent assay.
hCTLA4, sequence (P16410 36-161 limits assumed): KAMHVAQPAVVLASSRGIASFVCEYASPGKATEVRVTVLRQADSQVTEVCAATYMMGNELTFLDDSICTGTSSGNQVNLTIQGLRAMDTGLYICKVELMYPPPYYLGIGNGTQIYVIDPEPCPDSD
Molecule B1 gave a half-maximal effective concentration (EC50) of 8 nM.

For B2, the EC50 is 6.5 nM.

In turn, B3 had a 50% effective concentration (EC50) of 6 nM.

Molecule B4 displayed a half-maximal effective concentration (EC50) of 6.5 nM.

B5 returned an EC50 of 5.3 nM.

Regarding B6, the EC50 worked out at 5.5 nM.

With B7, a half-maximal effect (EC50) was put at 6.9 nM.

Turning to B8, the EC50 was found to be 6.7 nM.

As for B9, it took 7.9 nM to reach a half-maximal effect (EC50).

The molecule B10 displayed an EC50 of 4.4 nM.

As for B11, the 50% effective concentration (EC50) was 14.5 nM.

In turn, B12 showed an EC50 of 7.3 nM.

In the case of B13, the response was half-maximal at 6.7 nM (EC50).

For B14, it took 8 nM to reach a half-maximal effect (EC50).

B15 yielded an EC50 of 5.6 nM.

For the molecule B16, the concentration giving a half-maximal response (EC50) was 6.2 nM.

Molecule B17 returned an EC50 of 3.2 nM.

B18 had a concentration giving a half-maximal response (EC50) of 16.5 nM.

Another experiment deals with T1, human PSMA antigen (R&D SYSTEM, 4234-ZN-010) (human, UniProt Q04609 44-750).
T1 construct: bought antigen
T1 sequence (Q04609 44-750 limits assumed): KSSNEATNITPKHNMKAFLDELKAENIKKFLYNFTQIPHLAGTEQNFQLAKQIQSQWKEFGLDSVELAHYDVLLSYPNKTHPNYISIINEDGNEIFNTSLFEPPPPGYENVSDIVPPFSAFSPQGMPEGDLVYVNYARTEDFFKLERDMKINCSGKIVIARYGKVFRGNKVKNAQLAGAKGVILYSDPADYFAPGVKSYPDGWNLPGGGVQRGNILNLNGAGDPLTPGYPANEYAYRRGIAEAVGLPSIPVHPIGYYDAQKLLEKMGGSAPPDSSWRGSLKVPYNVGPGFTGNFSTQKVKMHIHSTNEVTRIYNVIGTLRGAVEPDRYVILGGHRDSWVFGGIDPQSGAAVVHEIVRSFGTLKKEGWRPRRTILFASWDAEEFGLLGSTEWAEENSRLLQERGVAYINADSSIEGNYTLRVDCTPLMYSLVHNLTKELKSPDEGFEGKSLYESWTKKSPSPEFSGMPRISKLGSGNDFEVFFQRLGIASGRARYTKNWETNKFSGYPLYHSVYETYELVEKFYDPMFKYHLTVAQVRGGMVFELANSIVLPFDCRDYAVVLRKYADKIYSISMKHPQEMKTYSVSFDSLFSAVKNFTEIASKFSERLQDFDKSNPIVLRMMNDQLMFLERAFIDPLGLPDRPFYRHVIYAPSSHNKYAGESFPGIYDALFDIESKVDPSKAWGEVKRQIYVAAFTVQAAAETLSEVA
The experiment is described as follows: ELISA, plate-bound PSMA antigen. On the procedure:
To test the ability of the PSMA-targeting humanized antibodies of the present disclosure to bind to PSMA antigen, the ELISA method was used in this test example to measure the binding of the PSMA-targeting humanized antibodies to human PSMA antigen (purchased from R&D SYSTEM, 4234-ZN-010). The specific steps are as follows: A 96-well plate was coated with PSMA antigen at 1 μg/well and placed at 4° C. overnight. After the supernatant was discarded, the plate was blocked with 5% skim milk for 2 h. Different concentrations of humanized antibodies were prepared using 1% BSA. The initial concentration was 10 μg/mL and was serially diluted 4-fold to obtain 12 concentrations. After the blocked 96-well plate was washed twice, the […] was added, and the plate was incubated at 4° C. for 1 h. After four washes, the plate was incubated with Strepidation-HRP secondary antibody (1:10,000) at 4° C. for 1 h. After color development with TMB, the reaction was stopped with 0.1 M sulfuric acid.
For B19, the EC50 stood at 0.0409 µg/mL and the “Top (maximum absorbance)” value was found to be 2.11 absorbance.

For the next experiment, the target named is T2, human PSMA on cells (Cho-hPSMA, CHO-K1 cells overexpressing full-length human PSMA) (human, UniProt Q04609 1-750). The experiment can be described thus: cell-based or functional assay.
T2 sequence (Q04609 whole entry): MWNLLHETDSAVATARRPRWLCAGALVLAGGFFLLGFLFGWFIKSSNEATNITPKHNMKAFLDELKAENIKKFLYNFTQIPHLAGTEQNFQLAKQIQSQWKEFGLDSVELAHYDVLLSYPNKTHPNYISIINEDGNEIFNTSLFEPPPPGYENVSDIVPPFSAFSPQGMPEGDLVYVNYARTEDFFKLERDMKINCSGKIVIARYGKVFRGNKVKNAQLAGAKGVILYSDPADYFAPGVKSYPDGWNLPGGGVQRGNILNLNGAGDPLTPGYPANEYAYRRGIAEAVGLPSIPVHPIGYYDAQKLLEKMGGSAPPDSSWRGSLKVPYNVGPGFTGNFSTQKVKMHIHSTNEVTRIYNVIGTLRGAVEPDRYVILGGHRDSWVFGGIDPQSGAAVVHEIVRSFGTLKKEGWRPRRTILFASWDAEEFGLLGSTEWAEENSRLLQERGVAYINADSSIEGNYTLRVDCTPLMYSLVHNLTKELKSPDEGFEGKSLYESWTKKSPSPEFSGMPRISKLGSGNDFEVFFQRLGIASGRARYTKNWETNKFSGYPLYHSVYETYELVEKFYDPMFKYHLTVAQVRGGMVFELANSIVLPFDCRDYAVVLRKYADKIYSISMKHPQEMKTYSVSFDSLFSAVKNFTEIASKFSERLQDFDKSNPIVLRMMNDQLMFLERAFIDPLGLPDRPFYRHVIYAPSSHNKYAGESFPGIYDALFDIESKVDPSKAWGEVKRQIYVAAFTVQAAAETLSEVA
On to B20, for which the “cytotoxic activity against Lncap, EC50 (LDH release, PBMC E:T 10:1, 48 h)” value was found to be 0.0084 nM and the “cytotoxic activity against Lncap, Maximum lysis rate %” value amounted to 48.7%.

The target of another experiment is T2, human PSMA on cells (Cho-hPSMA, CHO-K1 …). The experiment is described as follows: flow cytometry, Cho-hPSMA cells. On the procedure: The binding activity of antibodies to the stably transfected cell strain Cho-hPSMA, which overexpresses human PSMA, was measured by flow cytometry in this test example. The full-length gene encoding human PSMA was cloned into the mammalian cell expression vector pCDH. HEK293T cells (ATCC® CRL-11268) were co-transfected with three plasmids-pVSV-G, pCMV-dR8.91, and pCDH-human PSMA- to package viruses. After 48 h of transfection, viruses were collected to infect CHO-K1 cells.
Experiment 1: Cho-hPSMA was cultured in F12 medium with 10% FBS. The medium to which cells were inoculated was incubated in a 37° C., 5% CO₂ incubator for 2 days, and cells were added to a cell plate at 1×10⁵ cells/well and washed by centrifugation. Antibodies were serially diluted, and the antibody solutions were added to the cell plate at 100 μL/well. The plate was incubated at 4° C. for 1 h and then washed. An AF488-Goat Anti-human IgG Fc fluorescent secondary antibody dilution (1:400) was added to the cell plate at 100 μL/well, and the plate was incubated at 4° C. for 1 h and then washed. PBS was added to the cell plate at 100 μL/well before plate reading.
(Flow cytometry measures light scatter and fluorescence of single cells or particles in a stream.)
Take B21: the response was half-maximal at 1.09 µg/mL (EC50).

In the case of B22, the EC50 came out at 1.14 µg/mL.

In turn, B23 showed an EC50 of 1.01 µg/mL.

The molecule B24 came in with an EC50 of 0.981 µg/mL.

B25 returned an EC50 of 1.05 µg/mL.

B26 registered an EC50 of 1.05 µg/mL.

Take B27: the 50% effective concentration (EC50) worked out at 1.5 µg/mL.

Consider B28, for which it took 0.947 µg/mL to reach a half-maximal effect (EC50).

B29 registered an EC50 of 1.1 µg/mL.

Turning to B19, the EC50 came out at 1.21 µg/mL.
